The supplement of paper PMC12042874
± gives the uncertainty stated by the source.

Experiment: amyloid nucleation score (Sup35N fusion, yeast selection) (log enrichment); library NNK3; higher = more nucleation; inactive = no reads after selection
In short: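 Psi-negative yeast expressed Sup35N fused to peptides of 20 random codons. They were induced 24 hours with 100 μM copper sulfate, grown 7 days at 30°C without adenine and uracil, and their plasmid inserts from input and output were Illumina-sequenced. The nucleation score is the DiMSum log enrichment of output over input reads, centred on the mode score of non-aggregating sequences. Sequences with under 100 input reads were excluded.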

Row | Substance | amyloid nucleation score
1 | SYSSMCLPKNTKAHASWC | inactive
2 | VNFWMMRHAGCCKVHNKLSV | inactive
3 | TDFPYK | -0.12 ± 0.53
4 | NFLLDSLSSETGFRCY | -0.607 ± 1
5 | RGTRTGPRDRTLFMSKAVRS | 0.364 ± 0.39
6 | NGELLCKGH | inactive
7 | KLSWTPRLLNSYSLLEYVQD | inactive
8 | SKVMVHVIWEIVILFMKSKI | inactive
9 | QSWLMPFCLVSSTWKV | inactive
10 | STWGEFVH | inactive
11 | YRLQSLNPPISPVNHTNCSS | inactive
12 | FPPCTLSKLGSGYHLSNESS | inactive
13 | ITYKGLIWMSQGHVACRSRM | -0.008 ± 0.7
14 | VPNLEVSLKAFSSIVSFVRG | inactive
15 | PRRTNKVARGGRHARVRKVE | inactive
16 | KWSKILAPFILFLKLKSNCS | inactive
17 | RSERVRNSKLTVCVIYKYIK | inactive
18 | VAKHNAR | inactive
19 | LYTAATLGSTRLAYCKKEWG | inactive
20 | CYRRSYASKLSDV | inactive
21 | IEINCCSNFIGVCVDNLNL | 2.57 ± 0.055
22 | DNQVICISCYGLIGLKGGRQ | 1.5 ± 0.11
23 | LVKPNVDFVT | inactive

Row | Substance | amyloid nucleation score
24 | YCDLY | inactive
25 | NALMKSVTFWCSAGISISRL | 1.26 ± 0.11
26 | AISYFSSWGAM | 0.485 ± 0.24
27 | YIKRTIFTYYYRERMIADSY | inactive
28 | NLGGAPVL | inactive
29 | IEDEFEAMSHCLECRNFRKL | inactive
30 | DLSSSGCKLSRIFHGHNWSR | inactive
31 | WTIAVMVSVGKYMTGTAT | inactive
32 | LRYLIYTNYFRLFAWLNSCK | inactive
33 | TEPIWWEFGCKYHGYISARS | inactive
34 | MRSWRMRGSERFAHSLRGYL | inactive
35 | SLYRDLHFYSVLGF | inactive
36 | LGMVYICYYISVIVDPYSYS | 0.246 ± 0.25
37 | CGDLMPNRYTLSSSNTMSNS | inactive
38 | SFLDMIRCDINLIYKRHRLG | inactive
39 | WQVTCDFTFNLRFLFGFGDC | 0.617 ± 0.2
40 | YVCRRVSQDVRNLTKSVMCV | inactive
41 | CRLELPMGSTTDDDRGQKVD | -0.014 ± 0.53
42 | PGHFLECRKW | -0.096 ± 0.66
43 | FWGLSAMSLEVRGWRMGGEL | 0.196 ± 0.54
44 | RIPKTKRYHPCYVRLRRSVY | inactive
45 | GNLWT | 0.637 ± 0.12
46 | LITKWKWEFANTQWRSGQKG | 1.36 ± 0.15

Row | Substance | amyloid nucleation score
47 | SSAIYVMRLPQCMAECSRPR | inactive
48 | SNGLGLSLGNESANKEA | inactive
49 | YRELSTLREEMHIRY | inactive
50 | GSDVMSGG | inactive
51 | TWINFFGTYILWPNFNYSTR | 2.66 ± 0.064
52 | IYSWTGLSTTLKFLGMSLLL | -0.218 ± 0.71
53 | RARLMITYYLTDQASDNRYV | 0.799 ± 0.28
54 | NSFIVVIYYRVRSYRYTD | inactive
55 | CLWRRCMPSHPMVEVSRLIW | inactive
56 | PVFFM | inactive
57 | FGVSSP | inactive
58 | LVPIVVGKRFPIYVGVGPKG | inactive
59 | VVSVLLDTI | inactive
60 | LINSNVNTVSLFIPFSRMED | 1.58 ± 0.1
61 | TLVCEDIVYRDLLITSFLYS | 0.589 ± 0.087
62 | NRCTCAV | inactive
63 | DLPKVHGKFFYSLPMVVNTN | -0.162 ± 0.98
64 | QILYFVDTEVSYMEASWRDS | inactive
65 | IDSNE | inactive
66 | RVRQTFCIW | 1.75 ± 0.11
67 | LVRHARNKDNLFGN | inactive
68 | YIHIGAM | inactive
69 | LRPYHSRVWCVRLQSYSMVR | inactive

Row | Substance | amyloid nucleation score
70 | SSSCVSSGCDVWA | inactive
71 | RYKTMRRVTFKHSLNKKWVK | inactive
72 | VDKLGSYPMPLVLGVVNTYQ | inactive
73 | NHWGSNWWLVYKVYSGGLLM | inactive
74 | KWSNQGRCEHSVNMFHREWR | 1.64 ± 0.09
75 | MIVARMLVSIYKSWTIILRY | inactive
76 | RGNKTI | inactive
77 | RPRTRNRRSSISWAKAL | inactive
78 | SLFRFVDECCMNDFRLRLSC | inactive
79 | NFLFISYYVPGQCTV | inactive
80 | SRIFSGISPDVTDPS | inactive
81 | VRFKRVYCSG | inactive
82 | TFLALHNNQQLV | inactive
83 | LNFRSV | inactive
84 | SSDDFSWTIRMRRSEFTSHG | inactive
85 | NIYFLVRDSSRIRHKSVGWQ | 2.17 ± 0.06
86 | MYGHIYHFRINTLWGVNL | inactive
87 | ITSFFESHTVQVYAFYIRVF | inactive
88 | PDDCVGRSD | inactive
89 | LDACILRFARCLEGVDYADK | inactive
90 | RDGTYRWSDLKTICLIRVSW | inactive
91 | MGNYRALCLLLTWLRFLAIE | -0.015 ± 0.96
92 | IMMFIPWTSYLKYRIIMDYS | inactive

Row | Substance | amyloid nucleation score
93 | SRVSPMFKIRIWNWIPAWAT | inactive
94 | IINFSYANAVVIVWLNISMG | 1.08 ± 0.16
95 | LKDYYFVLGHALYVLRNPMS | 1.08 ± 0.13
96 | VRFCSEMVCLDYFSNIMHLG | inactive
97 | STLILNRLYCFNLISLASLS | 0.56 ± 0.2
98 | FYSECCILMGFFVGQNHSVW | 1.61 ± 0.094
99 | FAEYISQ | 0.293 ± 0.23
100 | SCWRNLYSFLRKGSYSRCM | inactive
101 | ECHRGDHINDYVRADNRFSL | inactive
102 | FAAAFDRGQGKS | inactive
103 | GLVSVLSDEMYCFWQYSCYS | 1.91 ± 0.091
104 | LELVRG | inactive
105 | WLGPYVLHSSAGSGMVDNGT | inactive
106 | IAAQSRRVGRCDIASLQLLE | inactive
107 | SARISNAVNDSFTGKTMYNK | inactive
108 | PNRVGAVPGG | inactive
109 | FISLPWYCQLVMVRDTSIIK | inactive
110 | CRLRGKLIYLLIMDGTKE | inactive
111 | FRYAMSYVGGMGSSINALIW | inactive
112 | LGVPSIPGT | inactive
113 | GIKFAGRRLTSEDL | inactive
114 | GSLCFGLDSSPSTKIYLYDS | inactive
115 | NVIMVFVLCCFWCEGTQKHV | 1.83 ± 0.056

Row | Substance | amyloid nucleation score
116 | MELSGSIMRIEMLYFFMRHK | inactive
117 | PRLRHVICHGRFWNPMIQVG | 0.971 ± 0.19
118 | DFHDLEWILNIEGACEEQGT | inactive
119 | RIKAYVGLFTVSWGSWGRRR | 1.44 ± 0.14
120 | TCFLVFTCVVGV | inactive
121 | EWSLKIVTMNMASWM | inactive
122 | WLFYLT | inactive
123 | QLSSYFRGLLFQCHSPQHGY | inactive
124 | KRTQDCMDRPRMLAAKASPS | inactive
125 | DMTGGVCHFWSCCVSCNK | 2.96 ± 0.072
126 | SKWAYIAFGVFVLLFALFNK | -0.161 ± 0.27
127 | YMRAIHRCCAYLVRGLGSGT | inactive
128 | SNMVPLVNSIPRKGVVKG | inactive
129 | LGGKDSASILIVPWTILSGL | inactive
130 | LSRSWCWRR | inactive
131 | YMGYWFKFFTFSGDQVTIGR | 0.718 ± 0.14
132 | KPNFEPSLAW | inactive
133 | PTHILPYLVD | inactive
134 | TCSRLVDQFNTFGTVY | inactive
135 | HYHSWFPTYSYSYYV | 2.71 ± 0.08
136 | NVIRGGQGLVGPAIMFRDGV | inactive
137 | ASQDI | inactive
138 | TDTTSIMNWEDRPISSLKVD | inactive

Row | Substance | amyloid nucleation score
139 | VWVTVRCLNYRPSYMPYRTR | 0.651 ± 0.32
140 | SANYNSNFR | inactive
141 | LLVSACA | inactive
142 | PVISMHIVVLCGKQKKTMSP | 0.594 ± 0.23
143 | VLGYILMRLRLYKIQVDISG | inactive
144 | SFFTGKAKGFYRQALRTYYR | -0.093 ± 0.59
145 | IKSPLDFFNVYVMVLGNWQI | inactive
146 | WRYWDSFFL | inactive
147 | ARSDVSCPWSGRMATVCLTV | inactive
148 | FNSPSWTYDRLHFPAEQQAL | inactive
149 | MSSQVMALIRFQFHSHDSHG | 1.36 ± 0.16
150 | IQMGGWIIMYSAGCGA | inactive
151 | THFQEPLSESGDRCLDDGYL | inactive
152 | SEIKYSYSYMRFLNCTETSN | inactive
153 | INTLYMTDRDRSLPESVQNL | inactive
154 | VSLLMRASGSCLNMQVYSGF | 1.57 ± 0.11
155 | FHTPRILYTMNS | inactive
156 | ETGMLCSGYCKGVCARDDPG | inactive
157 | NYTVLYGNSLSFFRSHLCRV | inactive
158 | QRYSLHDINEDYRYDWVNGL | inactive
159 | RNGVHS | 0.149 ± 0.81
160 | REDWRLFNCTTFSAPSSC | -0.217 ± 0.66
